Experiment: soluble on expression in E. coli; label from the status in PepcDB or PDB records

Sequence	soluble on expression in E. coli
SNAMNDIVASTQLPNTIKTITNDLRKLGLKKGMTVIVHSSLSSIGWISGGAVAVVEALMEVITEEGTIIMPTQSSDLSDPKHWSRPPVPEEWWQIIRDNVPAFEPHITPTRAMGKVVECFRTYPNVVRSNHPLGSFAAWGRHAEEITVNQSLSMSLGEESPLRKIYDLDGYILLIGVGYDSNTSVALSEVRSGACELIKVGAPIIENGERVWKEFVDMDYDSDKFVEIGVEFEQKGTVTMGKIGNAKCRLMKQRDIVDFGTEWFRKKN	soluble
MKTRKIPLRKSVVSNEVIDKRDLLRIVKNKEGQVFIDPTGKANGRGAYIKLDNAEALEAKKKKVFNRSFSMEVEESFYDELIAYVDHKVKRRELGLE	soluble
NDNSPRFEKSVYEADLAENSAPGTPILQLRAADLDVGVNGQIEYVFGAATESVRRLLRLDETSGWLSVLHRIDREEVNQLRFTVMARDRGQPPKTDKATVVLNIKDENDNVP	soluble
MIIDCHGHYTTAPAAHDAFRKAQIAHHDDPQQPAPQYPHISDDALRESIEQHQLRLLRERGADMTIFSPRASTMAHHIGNEAVSQVWTQRCNDLIARVVQLYPHTFIGVCQLPQSPGVPISHSIAELERCVNELGFVGCNLNPDPSGGHWNGVPLTDRAWYPFFEKMVELDVPAMVHVSGSCNANFHATGAHYLNADTTAFMQFLEGDLFRDFPSLRFIIPHGGGAVPYHWGRFRGLADMLGKPPLATHVMRNVFFDTCVYHQPGIDLLFEVIDIDNILFGSEMVGAVRGIDPQTGHYFDDTKRYIDALTISDADKRKVFEGNARRVYPRLDAQLRARGLLEHHHHHH	not soluble
MSLLLPANEQRPVVDIFVEGRRISAREGETIAAALLNAGIVPFRRTPVSGQPRAPLCLMGVCFECLVEVDGAQNVQSCMVRVNAGMQVGLPTGARRAGDGEGHHHHHH	not soluble
MGSDKIHHHHHHLDRYPQEELSDGSFWKTPDDANKVVSDLYGYLSTWDQDNDINSDNATMGIKWAAGNVSKGIYDPADQGWSGDYANVRQCNLILSKIDEIPDYPEADKTKALGQVYFFRAYIYFNLIRSFGDVPYIDKPLDLKDMEGITRMPRAEVYEKIMADFDKAIAALPTEWGASDYGRVTKGAAMAMKARAALYYGNWDTAATEAKNVMDLGLYELYDKDNTGKYAELFWEKADGCDEFILVTQFNYPDKTHYLMGWECFPTKGWGGMNPTQSLVDAFEDSEGAPISKSKIYDPTDPFKNRDPRLEVDILHDGEEMYGVTIKVAPLASSGSTGINQHNDATETGYYGQKWLDPSLDPLSDGWNMGKDWVHIRYAEVLLTYAEAKNELQGLDPEAFDAVNQVRRRVGMPELQNTDPSKPTYCATQDDLRQRIRNEWRVEFCLEGGKRMWDIRRWGIAKDVLNAPFEGLKYKIVDNPNDPDKKVDGGKMCILYQGDPIILSGSRYSDNNYLFPVPQSEIDLNPALTQNPGY	not soluble
MAIDHYENFPVASLLLPRRLRGAVTDIYRFARAADDIADEGAAEDAERLRQLAAFRAELHRIGAEPGTLAVPASADLAPIFTPLAATIARHQLPITPFFDLLSAFEQDISVKRYESHDDLLDYCRRSANPVGRLMLHLYGAVDEANLRDADAICTGLQLVNFWQDVRIDWRKQRVYLPEEDLRRHGVSRDDLAACRLTPQWRELMAFEVQRTRALLHSGAALPRRLPGRIGLELRLVVQGGLRILQRIEDAGYDVFMNRPELGAKDWAVMLWRAFT	not soluble
MNNASGGTHSKGTATTGGTTTQAAKTNLTTTAAKGRTATPSLDEETRKRLMVEGKCFHCFKPGHISPNYLEKQIKQLKVLEQPVPEEQGVSENN	not soluble
SLRRAAKAEAQAWLLTERLAQAEERHRLLEDQSATQIELIKAQAAQSANAIAEQLIKRADENAKSRERLAEARLEAQLKPVAETLAKFEAQVTAVEKARAEETGGLKAQITALLEASTATQAEARKLSAALRRGAGVQGRWGEQTLRNVLEAAGLNSRFDFQEQFSVDSEEGRRRPDVKVTLPGGGVFVIDAKCSLNAFLEAQDATDEVLREAAMARHAQSVRTHMQGLSSKAYWDQFAGEGSPDFVAMFVPGDGFLAAALDRLPELMAEAMDRRVVLVTPTTLFALCKAVAYGWRAEDQAKNAARIVEVGRELYKRVSVMGAHAGAMGKALESAVGKYNQFVGSLESQVLTQARRFEDLSVDHEGKEIPEPPMVDQAVRPLTKLKAVGQSPTLTLGNDTPT	soluble
MKIWSSEHVFGHPWDTVIKAAMRKYPNPMNPCVVGVDVLERSVDGCGRLHSLRLLSTEWGLPGLVRAILGANRTLTYIKERSVVDPAARKMELCSTNITLTNLVSVNERLVYTPHPENPEKTVLTQEAIITVKGISLGSYLESLMATTISSNAKKGWAAIEWIIEHSESAIS	not soluble
MSLKASLLQEQSLRLAMTQELRQAITMLQYNVQELSEFLYEQSLENPLIELGGFEREKKKSSNNSKSTSKQVENQMEIYSVDSTTIQQHLLNQIQYYKIEEEERKVASFIIMNMDGNGYLQETNEELANLLSAPLHVVDRSVELVQSLEPAGVGARNIQECLTLQLKRLQRRNGLAEEVVEDHFAYFVKKDWRKLVQVLKCSNEELQDAVNCITSLQPKPGLAFSSDKPLYIVPDMAVKKDGDRLVLQMNERNMPRIEIHSEYSALLNNSESEVASYVSEKYQHVQWIMRSLKQRKQTLLQVMTIIMEKQRDFFWKGPEYLKPLALKEVAEELSVHESTISRATRNKYVQTPHGLFEMKSFFSNAVSTTEDEAVSTKRVKQFIQTLVEAENKKKPLSDQKISKLLEEEHEIVISRRTVAKYREQMHIPASSLRKTIGEGHHHHHH	not soluble
MSSSSSSRIHNGEDVYEKAEEYWSRASQDVNGMLGGFEALHAPDISASKRFIEGLKKKNLFGYFDYALDCGAGIGRVTKHLLMPFFSKVDMEDVVEELITKSDQYIGKHPRIGDKFVEGLQTFAPPERRYDLIWIQWVSGHLVDEDLVDFFKRCAKGLKPGGCIVLKDNVTNHEKRLFDDDDHSWTRTEPELLKAFADSQLDMVSKALQTGFPKEIYPVKMYALKPQHTGFTNN	not soluble
YWFRSHKLERQLAEFQMQNELQYRYYAELEQKYRESRKIMHDMKNHLQAVEHLYQAKDGQEQGGAYVKDLYHMLNLLGEKYYSSNRMLNIICNDKLSLARHPAVAISVEIGDVDFSDLRDIDITTIFANLLDNALEAVEAFGEGAYLNLKIQEVHHFRVISIVNASRPGMKKEGHMGVGLENVRRTVEAYQGTMQCEIVGEEYRVSVMLPGKEDS	not soluble
MKKEEAKDIPIGGEIAVRQTGVPYGWLYRRTEPGYLLANGIALLECERDSAGRYKGGAGLDGMYLQTGRLYVPVLAGDGNVRAFQEVIPENYLAAAEMSVEGNYNQIDGIINNEPPKPSVLDALNQCREDAAKGRDAPENPPRGQEVER	not soluble
MIPISVLVTNAGTVSFHIKGEYNRDRPSKFSDVFRPVVTWNLTRKCNLKCLHCYINASPEGEDGLTTEEALGLIDEMAEMKIPLIIMSGGEPLMRRDFFELASYARSKGIKLALSTNGTLISESVAKRLKELDFSYVGISLDSYDPEFHDKFRGLNGAFNMTVKGIGNAINVGLNVGLRFTITAKNIHQVDEYMKLALKLGVKRITFYHLSASGRGRELREWMYTLEEYVSFINKMIDYAIKLSGKIEIETTLGQFDGVYIAKKLARNEEELEKYLKFVENSGGCGRKMISIYPNGDVYPCQFIDFYKLGNVREKPLKEIIKNIPDLFINTDKYLKGRYCDKCEYKSACKGGDRARAYYWNEDIYGDDPLCPLKTLHI	not soluble
MGSDKIHHHHHHMARIPRFALVERDSSNHCTWRAHDFEHVLEEAGATDKFLELLGRYKEKYGVEINSYCLMGTHPHVTCTTRRDQEQFSRFWQVVNGQFARWYNKRRERRGQVVMERMRSPRIQAEGAHQLTVMRYGDLNPVRAGLVKSPKDWKWSSYRHYAFGEPDPLIDDAPEYLALGKTGPQRRKAYQALFALPLSESLRTRRIDLVEYPFVGDAHWVMHRLDVAGLSPPD	not soluble
MADLQKNFQTSFRDAMASCAAGVHVITTDGAAGRYGITMTAVAPVTDEPPTVMLCINRSARIIPILSENGSLCINTLADEHQDVAEHFAGLTGLSPEERFAYHIWHRGKTGQLEIEGALAHLHGHIVGKHEIGTHFVFYVRLDEIKNCGCKRPALLYFRRQFRFLD	not soluble

Reference: the DeepSol protein solubility set
